The target in the test is T1, Long neurotoxin 1 (3L21_OXYSC) from O. scutellatus scutellatus (coastal taipan), recombinant long 3FTX (Oxyuranus scutellatus scutellatus).
T1 chain: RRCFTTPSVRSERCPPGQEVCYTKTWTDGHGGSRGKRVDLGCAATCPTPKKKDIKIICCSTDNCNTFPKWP
In words: SPR.

In article doi:10.1101/2022.09.26.507364 (bioRxiv, 2022) one finds Kd data, which are given here for one molecule.

B1: Centi-3FTX-D09 (antibody, V domains shown)
VH: EVQLVESGGGFVQPGGSLRLSCAASGFTFSNFDMHWVRQSPGKGLEWVSGLDHSGGAHYAGSVKGRFTISREDAKNSLDLQMNNLRVDDTAVYFCVRGTLYHYTSGSYYSDAFDIWGQGTLVTVSS
VL: EIVLTQSPSSLSASVGDRVTITCQASQDISNYLNWYQQKPGKAPKLLIYAASSLESGVPSRFSGSGSGTDFTLTISSQQPEDFATYYCQQANSFPYTFGQGTKVEIK
In general, Kd refers to the equilibrium constant for the complex coming apart. For the molecule B1, the Kd was found to be 0.49 nM.
